# Results taken from patent publication US20170042969A1.
# Target: ornithine decarboxylase (ODC) present in Xenopus laevis oocytes
# Experiment: cell-based or functional assay
"IC50 for down-regulation of hSGLT1 at low intracellular AMG, against hRS1-Reg wildtype","affinity for down-regulation of hSGLT1 in the presence of intracellular glucose, against hRS1-Reg wildtype",change of IC50 for down-regulation of hSGLT1 at high intracellular AMG (~250 µM) against low AMG,increase of affinity for down-regulation of hSGLT1 against hRS1-Reg wildtype or hRS1-Reg(S20A),decrease of affinity for down-regulation of hSGLT1 at high intracellular glucose,Binder
6300 times,1.5e+07 times,300 fold,4000 to 6000 fold,,"hRS1-Reg(S20E) (protein, not shown: small tags and cut ends) SSGQEPDVGNPMSLARSVSASVCPIKPSDSDRIEPKAVKALKASAEFQLNSEKKEHLSLQDLSDHASSADHAPTDQSPAMPMQ"
,,,,7 to 8 fold,"hRS1-Reg(S20A) (protein, not shown: small tags and cut ends) SSGQAPDVGNPMSLARSVSASVCPIKPSDSDRIEPKAVKALKASAEFQLNSEKKEHLSLQDLSDHASSADHAPTDQSPAMPMQ"
